Experiment [1] has as its target HA of H7 pseudovirus (A/chicken/Italy/99) in which the glycosylation site (Asn-38) was removed (influenza A virus H7 A/chicken/Italy/99). Put plainly: cell-based or functional assay.
Experiment [2] has as its target HA of H10N4 A/mink/Sweded/3900/84 (influenza A virus H10N4 A/mink/Sweded/3900/84). Put plainly: ELISA on recombinant or purified HA.
The target of experiment [3] is HA of H13N6 A/gull/Maryland/704/77 (ELISA antigen) (influenza A virus H13N6 A/gull/Maryland/704/77) (UniProt P13103). Put plainly: ELISA on recombinant or purified HA.
Experiment [4] concerns the target HA of H1N1 A/Brisbane/59/07 (influenza A virus H1N1 A/Brisbane/59/07). Put plainly: ELISA on recombinant or purified HA.
The target of experiment [5] is HA of H2N2 A/Singapore/1/57 (influenza A virus H2N2 A/Singapore/1/57) (UniProt Q67333). As to the kind of experiment: ELISA on recombinant or purified HA.
In experiment [6] the target is HA of H3N2 A/Brisbane/10/07 (influenza A virus H3N2 A/Brisbane/10/07). As to the kind of experiment: ELISA on recombinant or purified HA.
For experiment [7], the target named is HA of H3N2 A/New York/55/04 (influenza A virus H3N2 A/New York/55/04). As to the kind of experiment: ELISA on recombinant or purified HA.
The target of experiment [8] is HA of H3N2 A/Wyoming/3/03 (influenza A virus H3N2 A/Wyoming/3/03). As to the kind of experiment: ELISA on recombinant or purified HA.
The target of experiment [9] is HA of H4N6 A/duck/Czechoslovakia/56 (ELISA antigen) (influenza A virus H4N6 A/duck/Czechoslovakia/56) (UniProt P19696). As to the kind of experiment: ELISA on recombinant or purified HA.
The target of experiment [10] is HA of H5N1 A/Viet Nam/1/05 (influenza A virus H5N1 A/Viet Nam/1/05). As to the kind of experiment: ELISA on recombinant or purified HA.
Experiment [11] concerns the target HA of H5N1 A/Viet Nam/1203/04 (influenza A virus H5N1 A/Viet Nam/1203/04). As to the kind of experiment: ELISA on recombinant or purified HA.
In experiment [12] the target is HA of H6N5 A/shearwater/Australia/1/72 (influenza A virus H6N5 A/shearwater/Australia/1/72). As to the kind of experiment: ELISA on recombinant or purified HA.
Experiment [13] concerns the target HA of H7N3 A/Canada/444/04 (influenza A virus H7N3 A/Canada/444/04). As to the kind of experiment: ELISA on recombinant or purified HA.
The target of experiment [14] is HA of H8N4 A/Alberta/357/84 (influenza A virus H8N4 A/Alberta/357/84). Put plainly: ELISA on recombinant or purified HA.
Experiment [15] concerns the target HA of H9 A/HK/1073/99 (influenza A virus H9N2 A/Hong Kong/1073/99). As to the kind of experiment: ELISA on recombinant or purified HA.

Regarding CR6261 (antibody), the neutralization of H7 pseudovirus, IC50 in experiment [1] is > 50 µg/mL.

Regarding ctr (control antibody of Table 8), the half-maximal effective concentration (EC50) in experiment [2], in experiment [3], in experiment [4], in [5], in experiment [6] and in experiment [7] was > 20 µg/mL throughout. The EC50 in experiment [8], in [9], in experiment [10], in experiment [11], in experiment [12] and in experiment [13] was > 20 µg/mL each time. Further, the 50% effective concentration (EC50) in [14] and in [15] was > 20 µg/mL each time.

With F10 (antibody), the neutralization of H7 pseudovirus, IC50 in experiment [1] is > 50 µg/mL.

The values above are taken from US20170204167A1.
